# Test: label from the status in PepcDB records
row,Sequence,protein production
1,SLSEAGYPRKVMQHAEELHERILSFDSRITVPLDFGTTGNEVDKDGPGQLDLVKAGRGRLSGAALAIFGWPEMWNGPNAPHKPTPGFVDEARHQQEIRYKILTGMVRDFPNQVGIAYSPEDFRRLAMEGKFAIVMSMLNAYPLGDDLSQLDKWAARGVRMFGFSYVGNNDWADSSRPLPFFNDSPDALGGLSPLGKQAVERLNDLGVIIDVSQMSTKALEQVAALSRAPIVASHSAPRALVDIKRNLSDHEMQLIKDSGGVIQVVGFPAYLRPLSKPTLDKLDALRARFDLPPLEGLDYALMPGDPIITIWPEQRFGEYASALYGILEEEPKAGLKELVDAIDYTVKKVGIDHVGISSDFNDGGGVDGWKDVSEIRNVTAELITRGYSDADIAKLWGGNFLRAWGEVQKRAKPTATP,not failed
2,MASSSSSSEHKVFLSFRREDTGRTFVSHLYRSLDQKEIRTYKFENQQAGDGKRISSEVKQAINESRIAVVVISENYVSSVLCLDVLAKIIERLPLIKIETVFYEVDPGDLTRPTGKFADDFRRHEARENRRTVNRWRDALDQLVSITNSNFCSRNWEDDSKMIDDLIIRLINIYFSKYYTPDVDIIAETTVGLDASVLGLMTDIDMKYKLNSLSGSVESGFGLERYALEATSVMDDMSNESPSPTSDDSNGLVGMYRHKKAVYGLLDLESKNQVRTIGIWGFQGVGKTTLAECVFDDISSHFQHYCFLTNANKIYQNRISPSLLKHLTRRRSSEDIFDAIKPSLVNRKVLFVVDGVDATYNEQFNDAMKVTRWLGPGSRIIMTSRFKSSLKFGGAKYEMECLRYEEALQLFSLYAFKKTYPLIGFELFSIRAVHFAGRLPLSLKVLGSFLYDKDEESWKRTLHKLEASQDNDRRYVSNYIGAGEYLPRRQIELEQYVSPDEEEYSPSYIMSL,failed
3,MEMEERKLKILQAIINDYINNGEPVGSRTIAKKYNLGISSATIRNEMADLEEMGYIEQLHTSSGRKPSDKGYRLYVDRLMEIPSMSVEEEMLIKAKIIDSALYEIDKLVKQAMSLVSEMTKLTCVVKSLSARKSYIKSISLINIEPNMILCVFITDSGMIKNSIIRVKSNIENSSLERIANILNSKLKGLTIEQINLEVINNIKKDLREYGHIFDCIMPNLYDILREADSTEVYKEGTMNIFNYPEFKDIEKAKEFLSVIDDRRILDTLFNASGGVTVNIGNENSIKEARDFSVVSSVYKYNGRPLGTIGIIGPTRIPYSKVIKVIMEVVDQINNNLDKMNNS,failed
4,MKALTVNKTIFILVIAASLLLGAAVGYIAHSLTAGGGGVVVTGSKAVSTGTSIGVYLTIKNNTNTTSCIVGADIAESVSGKVVVDIHKTVEEGGRVVMMPAGPICLGPGETLEMRQGPGSYHVMIMGDRSAIEKITEDGVVEIKVLVEQQVDAPITGP,failed
5,MTKHRWSPVSSPPSRKPENVQVINLLPVAAGIIAILLALSFFGQVGAALLAITLALILATALNPVARWLERWMPRPAAGALTVLLVVLALVLLGLVAVPPLVSQGSKLTSSLPTSIPELEAQINALIDRYPAINSVLTEASVHRLIQQAGSFAANAAKGLPNIVSTFVGGVFMGLVMLVMVVFVLSNPVPLVNGVLGAVPPRHRLPAARALAQILKQLGGWGRATVLVMLVTGSCTALGLMLLKVDNWLIFGILAALGELVPNIGPIVATIPSVLFAAADDPQKGLYVALFVLVFQQVSGFVLGPFLLGGAGKLHPLSVTVGVLLFGSVFGIVGAFLTVPFLIIIKAIYQEFYLQDAPDIPDAVAMALISGKVEEQLDREEEQREAIDGQLQAARDEELQRQLEEGDLDLAAVLEHPESEPGNETTVEHSQTVISPTAQNPEQK,failed
6,MVEPGVAKLTTYASKQATDMGAIYVNSKGDRIVNESNVYTTFRNAILKQADKVAYLVMDERTWKKVYDLLILHDFTPEEIKSFFENKGKRPVFVKGSLESAAEQAGIVVDELVQTVKNYQGYVQDGHDHDFGRDPKYLHQFEGETFYIIEQRLEHHHHHH,failed
7,MPGKGEGSPVGIAILGYGTVGSQVLRLLTENHNDFQHRAGGPLEIKGVAASSVEKHRGSLADQLGLLTDDARSLIARDDVDIVVEVIGGIDYPRELILEALHSGKSVVTANKALVAAHSEELAAAADEAGVDLYFEAAVAAAIPVLGPLRRSLAGDQIQSVAGIVNGTTNFILDAMDSTGASYDDMLAEATRLGYAEADPTADVEGHDAASKAAILASLAFHTRVTYADVYCEGISKITADDINAAKEAGFTIKLLAICERLNVDGVEKVSARVHPTLVPRNHPLASVDKSFNAIFVEAEAAGRLMFYGNGAGGNPTASAVLGDIVGAARNKVFGGRAPGESTYADLPIAPFGEVPTRFHIDMEVEDRVGVLADLAKTFSNHGISLRTVRQAEKDGHARLIVVTHTAKESELEATVEQIKNSDSVKKINSVIRLAGLEHHHHHH,not failed
8,MAELGITLRTVQSLGPGETIWDAGHRAAVRGFGVRRQRGAPVYVLKYRAHGRQRFFTIGPHGSPWTPERARREAKRLLGLVADGKDPADDRAEAALQAADTLLKIADQYLKHAKQKQRPRTYSEIERYLLTAWKPLHPVSVFLIKRRHVAIRIAEIATGQGAVTAARARAALSAMFNWAIREGLDIPANPVLGTNRPAAPRSRDRVLADGELAEIWAALGDDDYGRIVKLLLLTAQRREEVGSMRRTELDLENSVWKIPGNRTKNHREHKVPLTKAAIALIPLPRGNREYVFGDGPRREGDNHRGYSGWSKSKAGLDARLLAVRQKALDAGVAAEPLPDWHLHDLRRTAATVMADRLGVFPHIVEAVLNHVSGHRAGVAGVYNLARYETDMRAALNAWADNIKDIVAS,failed
9,MIKISVIIPIYNAENYIEKAFSSLKNQTLAQNEFEILCIDDKSTDNSLGKLKQLSKIHKNMRIINLHKNSGGPMIPRNKGIKEAKGKYIIFLDNDDYLGEEALERLFIQAEKNQSEVIFGKYVGINGRGVPQSQFKKGNRNEADILADNLVYTLAPHKMFQTAFLKTKKIYFDPNILIGEDQYFVMKAYVNAKVITVLADYDYYYVVSRGDENLSIKESKMDPREICKVVPAVVKEIEASPLHPTYKKTLIRAYIQRYFNDYITGNYNLDYKNMSERQKTFVQVMKDTIVCHLDEKMKNELPTKTRFMIDIIAENNPEKLIDVRMQMENFSKNQVVKVENGYIKGRFRKMRPQLAYDDVYDINHLNSSKVQLHSVTLQNNNYLLDISLEQSLLTRFQTALRLCLKERDGNLEIWISPLKMLSTERGIYAVDSTLFNHTCIWDLFIESEINGFKNRKRVGKDRDFEEIVSSNNTPLLIQNNSYQIKAYFTTPFSNLSFQIISE,failed
10,MDGEILRDPTRRFVLQSGAAVGGGLLLSFTMSSEGQAAGDTKVNAYVRIASDGKVTIASKVPEVGQGIKTALPMLIAEELDVDWSAVTVEQAIADTKIYGRQVAGGSMATTLEYDGLRRVGATVRALLIAAAAARWNVPADSLKTEPGFVVDAAGKRRASYGELAQAAAALTPPDPKSLTLKDPKAFRIIGKSHKSQNLDAIVTGQPTYGIDVRLPGMLFAAFAKAPVYGAKVASVDLALAKAVKGVRDAFIIEGGTNLQGLLPGVAVVADSWWAARKGREALQIQWAEHPTASQSTVGFAAKAAELAAAPPHRNLHNDGDVEAALKGAAKTVSAAYSYPFIAHAALEPQNCTAHVKDGKVEIWAPTQNPESGRALVARALNVDPSAITIHLIRGGGGFGRRLMNDYMVEAAAIAAKVNAPVQLIWTREDDMQHDFYRPGGWHNLTAGLDAKGGLTAWKNHFITFGEGETFNTAAAMNATQFPCRAVANYRHDVSVMPLGFPTGFLRAPGNNAFGFVIQSFTDELALAAGKDPVAFRRELLGEPRLLGEPGKGDSFHTGRMRGVLDLVAEMSGWGRKVPKGTGLGVACHYSHLGYVAVVMQVTVKDGAVKVDKVWAAADVGRQIVNPSGADQQMQGSILDAIGSTLYQSITFENGAATNSNFGDFPLLRMADAPPVEVRYKLSDNNPTGLGEPAYPPAPAALCNAIFAATGKRIRSLPIGDQLA,failed
11,GMFGLVFNTRRATFADEKVREGLSYALDFEWLNRNILGGSFKRTQSYWQNSPLGAYGNAADERELALLGDAAKTMPAELLAGTYAMPTTDGTGADRKVLKLAVDKLKEAGYSIKNGKMSDANGRQLAFEIMTQNPAQERIALAYQRSLNLIGVAMGIRSVDDGQYQARSNSFDYDMIIRSLPSSLSPGMEQLNRWNSLSRDAQGSFNYAGVANPDIDRMIEALLQARSTEDFQAAVRAYDRLLVAGHYIIPLYYIG,failed
